Test results reported in patent US20230073692A1 (CYTOMX THERAPEUTICS, published 2023).

Tests used:
Human SLC34A2 [1] = biological target: T1, Human SLC34A2 (human, UniProt O95436 1-690); assay: cell binding, OVCAR3 cells
T1 construct: whole, on cells; also called SLC34A2 on OVCAR3 cells; Rat 1E Human SLC34A2
T1 sequence (looked up): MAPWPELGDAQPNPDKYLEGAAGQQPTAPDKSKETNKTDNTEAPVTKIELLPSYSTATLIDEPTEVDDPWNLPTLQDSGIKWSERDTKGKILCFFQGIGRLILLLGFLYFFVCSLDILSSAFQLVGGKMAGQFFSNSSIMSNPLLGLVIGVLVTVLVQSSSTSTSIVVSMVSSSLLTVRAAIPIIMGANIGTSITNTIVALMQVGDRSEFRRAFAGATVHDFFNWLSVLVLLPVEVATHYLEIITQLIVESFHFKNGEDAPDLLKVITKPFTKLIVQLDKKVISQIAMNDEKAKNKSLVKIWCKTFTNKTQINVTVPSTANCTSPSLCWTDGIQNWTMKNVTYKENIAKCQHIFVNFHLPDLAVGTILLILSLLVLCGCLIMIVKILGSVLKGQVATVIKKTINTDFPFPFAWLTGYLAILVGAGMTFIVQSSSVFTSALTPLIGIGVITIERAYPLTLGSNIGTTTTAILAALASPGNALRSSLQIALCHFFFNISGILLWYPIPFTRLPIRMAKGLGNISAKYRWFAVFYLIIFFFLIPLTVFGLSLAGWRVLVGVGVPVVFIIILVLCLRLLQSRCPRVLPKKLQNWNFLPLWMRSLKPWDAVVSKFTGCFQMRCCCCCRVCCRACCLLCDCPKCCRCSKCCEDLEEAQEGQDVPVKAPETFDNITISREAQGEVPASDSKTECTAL

Murine SLC34A2 (murine) = Murine SLC34A2 (murine) (UniProt Q9DBP0); assay: cell binding, Rat1E cells expressing murine SLC34A2
Cyno SLC34A2 [2] = biological target: T2, Cyno SLC34A2 (cynomolgus monkey, UniProt A0A2K5UHY1 1-690); assay: cell binding, Rat1E cells expressing cyno SLC34A2
T2 construct: whole, on cells; Recombinant, on Rat1E cells; also called cynomolgus monkey SLC34A2; Rat1E cells expressing SLC34A2 (Cynomolgus)
T2 sequence: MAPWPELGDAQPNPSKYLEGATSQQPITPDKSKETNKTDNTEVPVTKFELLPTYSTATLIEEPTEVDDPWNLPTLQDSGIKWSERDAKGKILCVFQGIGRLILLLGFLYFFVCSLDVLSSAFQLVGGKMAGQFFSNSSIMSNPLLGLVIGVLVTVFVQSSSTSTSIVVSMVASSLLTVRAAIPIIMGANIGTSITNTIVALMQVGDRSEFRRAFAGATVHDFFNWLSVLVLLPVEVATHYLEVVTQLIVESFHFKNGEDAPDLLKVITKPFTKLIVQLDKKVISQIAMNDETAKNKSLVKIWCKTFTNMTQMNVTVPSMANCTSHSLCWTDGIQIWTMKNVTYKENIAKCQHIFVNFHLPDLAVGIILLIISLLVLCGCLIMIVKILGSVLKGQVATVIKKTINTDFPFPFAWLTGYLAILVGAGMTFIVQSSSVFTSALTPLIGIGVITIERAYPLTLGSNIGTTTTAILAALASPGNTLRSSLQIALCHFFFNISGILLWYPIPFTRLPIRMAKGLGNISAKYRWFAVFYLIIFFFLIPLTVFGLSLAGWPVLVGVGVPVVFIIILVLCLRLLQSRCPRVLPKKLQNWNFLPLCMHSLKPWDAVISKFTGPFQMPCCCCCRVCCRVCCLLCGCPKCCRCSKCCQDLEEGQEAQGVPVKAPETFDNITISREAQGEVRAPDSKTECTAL

Human SLC34A2 [3] = biological target: T1, Human SLC34A2; assay: cell binding, Rat1E cells expressing human SLC34A2
Rat SLC34A2 = biological target: T3, Rat SLC34A2 (rat, UniProt Q9JJ09 1-695); assay: binding affinity on Rat1E cells expressing rat SLC34A2
T3 construct: whole, on cells; also called Rat1E cells expressing SLC34A2 (Rat)
T3 sequence (looked up): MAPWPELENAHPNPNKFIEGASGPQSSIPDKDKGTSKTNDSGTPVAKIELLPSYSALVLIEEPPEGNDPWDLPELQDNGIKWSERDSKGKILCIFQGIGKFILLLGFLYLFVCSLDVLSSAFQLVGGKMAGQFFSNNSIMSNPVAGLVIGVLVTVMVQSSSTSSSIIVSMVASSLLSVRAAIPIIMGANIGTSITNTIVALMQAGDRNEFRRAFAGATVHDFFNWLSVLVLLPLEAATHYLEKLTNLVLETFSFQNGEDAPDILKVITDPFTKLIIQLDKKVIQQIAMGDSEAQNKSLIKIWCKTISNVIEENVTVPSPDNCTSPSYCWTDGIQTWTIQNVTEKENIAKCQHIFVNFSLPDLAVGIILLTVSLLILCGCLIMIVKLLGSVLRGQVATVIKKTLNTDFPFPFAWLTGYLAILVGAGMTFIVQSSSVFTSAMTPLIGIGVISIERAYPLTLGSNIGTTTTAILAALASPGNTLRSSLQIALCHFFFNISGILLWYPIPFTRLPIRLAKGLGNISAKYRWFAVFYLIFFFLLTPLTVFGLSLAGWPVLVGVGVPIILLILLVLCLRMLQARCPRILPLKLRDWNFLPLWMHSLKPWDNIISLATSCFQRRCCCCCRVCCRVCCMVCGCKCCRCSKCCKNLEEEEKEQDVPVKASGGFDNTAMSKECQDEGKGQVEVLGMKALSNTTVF

Human SLC34A2 [4] = biological target: T1, Human SLC34A2; assay: binding affinity on Rat1E cells expressing human SLC34A2
Cyno SLC34A2 [5] = biological target: T2, Cyno SLC34A2; assay: binding affinity on Rat1E cells expressing cynomolgus SLC34A2
Human SLC34A1 [6] = biological target: T4, Human SLC34A1 (human, UniProt Q06495); assay: flow cytometry on 293-FT cells transiently transfected with human SLC34A1, overlay with isotype control
T4 sequence (target protein, looked up): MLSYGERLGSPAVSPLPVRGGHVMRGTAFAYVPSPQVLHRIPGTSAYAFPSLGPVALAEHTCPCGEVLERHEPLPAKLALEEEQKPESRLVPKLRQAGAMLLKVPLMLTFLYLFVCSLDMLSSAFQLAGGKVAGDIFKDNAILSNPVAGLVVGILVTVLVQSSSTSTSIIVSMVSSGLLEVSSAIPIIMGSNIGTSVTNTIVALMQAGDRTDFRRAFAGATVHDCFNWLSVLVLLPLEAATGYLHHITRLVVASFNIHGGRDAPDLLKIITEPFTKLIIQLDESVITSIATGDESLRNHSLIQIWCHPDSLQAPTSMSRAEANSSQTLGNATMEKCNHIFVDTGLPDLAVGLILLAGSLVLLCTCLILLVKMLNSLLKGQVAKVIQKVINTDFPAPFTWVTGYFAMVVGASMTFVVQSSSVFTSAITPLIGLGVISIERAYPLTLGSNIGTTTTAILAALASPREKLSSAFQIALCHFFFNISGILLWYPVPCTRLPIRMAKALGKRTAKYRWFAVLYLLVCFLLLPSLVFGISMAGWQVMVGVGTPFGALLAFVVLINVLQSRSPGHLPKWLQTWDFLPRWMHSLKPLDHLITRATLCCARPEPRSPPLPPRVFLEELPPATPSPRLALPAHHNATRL

Human SLC34A3 [7] = biological target: T5, Human SLC34A3 (human, UniProt Q8N130); assay: flow cytometry on 293-FT cells transiently transfected with human SLC34A3, overlay with isotype control
T5 sequence (target protein, looked up): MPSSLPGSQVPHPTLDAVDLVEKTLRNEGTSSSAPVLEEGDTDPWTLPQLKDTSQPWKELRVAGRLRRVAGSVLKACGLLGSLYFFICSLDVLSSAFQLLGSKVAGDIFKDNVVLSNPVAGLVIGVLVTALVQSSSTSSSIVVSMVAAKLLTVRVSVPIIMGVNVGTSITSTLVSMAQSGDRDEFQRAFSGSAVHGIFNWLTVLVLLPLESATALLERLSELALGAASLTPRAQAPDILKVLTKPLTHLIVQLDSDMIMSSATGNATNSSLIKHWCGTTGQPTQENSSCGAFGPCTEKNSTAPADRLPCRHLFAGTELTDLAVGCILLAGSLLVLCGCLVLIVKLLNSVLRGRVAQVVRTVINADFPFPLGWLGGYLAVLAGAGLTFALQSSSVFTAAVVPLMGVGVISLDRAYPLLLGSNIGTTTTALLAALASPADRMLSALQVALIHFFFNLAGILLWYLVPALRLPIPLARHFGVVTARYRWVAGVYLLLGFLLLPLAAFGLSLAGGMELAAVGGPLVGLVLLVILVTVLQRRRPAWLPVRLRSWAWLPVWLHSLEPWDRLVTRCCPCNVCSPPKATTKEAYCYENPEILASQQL

Human SLC34A2 [8] = biological target: T1, Human SLC34A2; assay: cell-based or functional assay
Human SLC34A1 [9] = biological target: T4, Human SLC34A1; assay: flow cytometry on 293-FT cells transiently transfected with human SLC34A1, overlay with isotype control ADC
Human SLC34A3 [10] = biological target: T5, Human SLC34A3; assay: flow cytometry on 293-FT cells transiently transfected with human SLC34A3, overlay with isotype control ADC

Binder | Kd (Human SLC34A2 [1]) | Bmax (Murine SLC34A2 (murine)) | Kd (Murine SLC34A2 (murine)) | Kd (Cyno SLC34A2 [2]) | Kd (Human SLC34A2 [3]) | Kd (Rat SLC34A2) | Kd (Human SLC34A2 [4]) | Kd (Cyno SLC34A2 [5]) | binding result (Human SLC34A1 [6]) | binding result (Human SLC34A3 [7]) | in vitro cytotoxicity in target-positive OVCAR3 cells (Human SLC34A2 [8]) | binding result (Human SLC34A1 [9]) | binding result (Human SLC34A3 [10])
cHv83-1b15.G1(L328C)k (antibody, V domains shown, the name says L328C in the IgG1 constant region; also called [Ag]AB-3; cHv83-1b15.G1k(L328C)k) VH: EVQLVESGGGWVQPGGSLRLSCAASGFTFSSHIMYWVRQAPGKGLEYVSGISSNGLSSYYVDSVKGRFTISRDNSKNLLYVHMGSLKPEDMAMYYCARGGRDRVPAVFDYWGQGTLVTVSS VL: DIQMTQSPSSLSASIGDRVTITCRASQSIGTFLNWYQQKPGKAPKVLIYVASSLQSGVPSRFIGSGSGTDFTLTISSLQPEDFATYYCQQSYSVPITFGQGTRLEIKR | 3.79 nM | 15000 | 0.0631 nM | 0.967 nM | 1.03 nM | 0.246 nM | 0.721 nM | 0.67 nM | no binding | no binding |  |  | 
cHv83-3a23.G1(L328C)k (antibody, V domains shown, the name says L328C in the IgG1 constant region; also called [Ag]AB-2; unconjugated antibody of OT1 / OT#1) VH: EVQLVESGGGLVQPGGSLRLSCAASGFTFSSYVMHWVRQAPGKGLEYVSGVSSSGDSTFYVDSVKGRFTISRDNSKNTLYLQMGSLRAEDMAVYYCARGGITGAPLVFDIWGQGTMVTVSS VL: DIQMTQSPSSLSASVGDRVTITCRASQSISRFLNWYQQKPGKAPKVLIYVTSSLQSGVPSRFSGSGSGTDFTLTISSLQPEDFATYYCQQSYNTPITFGQGTRLEIKR | 2.28 nM | 11300 | 0.0903 nM | 0.17 nM | 0.254 nM | 0.689 nM | 0.553 nM | 0.17 nM | no binding | no binding |  |  | 
cHv83-3a23.G1(L328C)k-AGL-01332-93 (OT#1) (other, AGL-01332-93 drug-linker conjugated to the antibody; engineered Cys at 328 (L328C) lies in the IgG1 constant region, outside the VH pieces given, Human IgG1 (L328C) / kappa) VH: EVQLVESGGGLVQPGGSLRLSCAASGFTFSSYVMHWVRQAPGKGLEYVSGVSSSGDSTFYVDSVKGRFTISRDNSKNTLYLQMGSLRAEDMAVYYCARGGITGAPLVFDIWGQGTMVTVSS VL: DIQMTQSPSSLSASVGDRVTITCRASQSISRFLNWYQQKPGKAPKVLIYVTSSLQSGVPSRFSGSGSGTDFTLTISSLQPEDFATYYCQQSYNTPITFGQGTRLEIKR |  |  |  |  |  | 0.686 nM | 0.411 nM | 0.227 nM |  |  | > 10 fold better EC50 than the benchmark ADC | no binding | no binding
cHv83-1b15.G1(L328C)k-AGL-01332-93 (OT#2) (other, AGL-01332-93 drug-linker conjugated to the antibody; engineered Cys at 328 (L328C) lies in the IgG1 constant region, outside the VH pieces given, Human IgG1 (L328C) / kappa) VH: EVQLVESGGGWVQPGGSLRLSCAASGFTFSSHIMYWVRQAPGKGLEYVSGISSNGLSSYYVDSVKGRFTISRDNSKNLLYVHMGSLKPEDMAMYYCARGGRDRVPAVFDYWGQGTLVTVSS VL: DIQMTQSPSSLSASIGDRVTITCRASQSIGTFLNWYQQKPGKAPKVLIYVASSLQSGVPSRFIGSGSGTDFTLTISSLQPEDFATYYCQQSYSVPITFGQGTRLEIKR |  |  |  |  |  | 0.913 nM | 1.76 nM | 1.2 nM |  |  | > 10 fold better EC50 than the benchmark ADC | no binding | no binding
